Test results: US20190010248A1 (Pieris, published 2019)

Biological target: T1, recombinant CD137-Fc fusion (#838-4B-100, R&D Systems) (human, UniProt Q07011 24-186)
T1 construct: also called Fc-fusion of human CD137; human CD137-Fc; not shown: Fc part of the bought fusion
Assay: ELISA, CD137-Fc coated, detection with anti-hNGAL antibody-HRP

- EC50: 0.49 nM
B1: lipocalin mutein of SEQ ID NO: 2 (designed binder)
chain: QDSTSDLIPAPPLSKVPLQQNFQDNQFHGKWYVVGQAGNIRLREDKDPIKMMATIYELKEDKSYDVTMVKFDDKKCMYDIWTFVPGSQPGEFTLGKIKSFPGHTSSLVRVVSTNYNQHAMVFFKFVFQNREEFYITLYGRTKELTSELKENFIRFSKSLGLPENHIVFPVPIDQCIDG
notes: also called positive control lipocalin mutein; CD137-specific lipocalin mutein in monomeric form
